Results on two substances are retold here after article PMC7430671.

The target of data set [1] is T1, RapZ1-279 (purified) del280-284 (Escherichia coli) (UniProt P0A894).
T1 sequence: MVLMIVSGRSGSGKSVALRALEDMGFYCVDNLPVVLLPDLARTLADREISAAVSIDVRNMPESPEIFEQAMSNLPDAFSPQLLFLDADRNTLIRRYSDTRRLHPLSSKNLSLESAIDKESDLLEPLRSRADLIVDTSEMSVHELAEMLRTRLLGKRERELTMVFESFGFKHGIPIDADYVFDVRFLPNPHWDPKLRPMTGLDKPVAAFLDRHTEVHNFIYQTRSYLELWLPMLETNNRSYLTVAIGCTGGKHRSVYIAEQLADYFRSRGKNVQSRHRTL
The data set is described as follows: EMSA. The settings on record: EMSA on non-denaturing PAA gels, phospho-imaging; buffer, pH and temperature not given here (as in Göpel 2016; Durica-Mitic and Görke 2019). (In general: A gel shift assay detects complexes by their altered migration in electrophoresis.)

Data set [2] concerns the target T2, RapZCTD lacking the 5 C-terminal residues del280-284 (Escherichia coli) (UniProt P0A894).
T2 sequence: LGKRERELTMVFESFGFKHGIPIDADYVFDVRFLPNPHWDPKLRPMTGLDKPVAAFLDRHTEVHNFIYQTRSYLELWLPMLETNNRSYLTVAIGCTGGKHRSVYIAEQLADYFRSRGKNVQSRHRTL
The experiment in a line: EMSA. The settings on record: EMSA on non-denaturing PAA gels, phospho-imaging; buffer, pH and temperature not given here (as in Göpel 2016; Durica-Mitic and Görke 2019).

Data set [3] concerns the target T3, RapZquad (purified) K270A;K281A;R282A;K283A (Escherichia coli) (UniProt P0A894).
T3 sequence: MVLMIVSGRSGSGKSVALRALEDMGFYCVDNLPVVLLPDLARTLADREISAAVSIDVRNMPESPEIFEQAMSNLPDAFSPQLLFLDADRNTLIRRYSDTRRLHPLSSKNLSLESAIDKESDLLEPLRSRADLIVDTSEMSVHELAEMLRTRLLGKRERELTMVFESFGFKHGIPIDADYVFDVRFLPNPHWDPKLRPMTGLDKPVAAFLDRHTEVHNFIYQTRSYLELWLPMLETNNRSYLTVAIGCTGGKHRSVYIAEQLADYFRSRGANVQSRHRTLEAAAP
The experiment in a line: EMSA. The settings on record: EMSA on non-denaturing PAA gels, phospho-imaging; buffer, pH and temperature not given here (as in Göpel 2016; Durica-Mitic and Görke 2019).

Data set [4] deals with T4, RapZCTDquad K270A;K281A;R282A;K283A (Escherichia coli) (UniProt P0A894).
T4 sequence: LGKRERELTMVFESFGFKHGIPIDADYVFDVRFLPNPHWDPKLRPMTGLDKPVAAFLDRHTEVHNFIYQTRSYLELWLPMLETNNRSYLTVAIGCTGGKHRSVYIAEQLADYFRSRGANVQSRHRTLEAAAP
The experiment in a line: EMSA. The settings on record: EMSA on non-denaturing PAA gels, phospho-imaging; buffer, pH and temperature not given here (as in Göpel 2016; Durica-Mitic and Görke 2019).

Data set [5] concerns the target T5, RapZCTD (Escherichia coli) (UniProt P0A894).
T5 sequence: T4 sequence with A118K, A129K, A130R, A131K
The experiment in a line: EMSA. The settings on record: EMSA on non-denaturing PAA gels, phospho-imaging; buffer, pH and temperature not given here (as in Göpel 2016; Durica-Mitic and Görke 2019).

For data set [6], the target named is RapZ 1-279 T278G L279G (T25 fusion). The experiment in a line: BACTH assay (self-interaction; β-galactosidase activity). The settings on record: bottom panel; same RapZ1-279 variant fused to T18 and to T25; mean ± SD, n ≥ 2; parent: est. 4100; read off a plot.

Where a chain is given by its changes, count along the chain named.

Sequence of RapZ_(1–279), BACTH fusion (P0A894 whole entry T278G/L279G, looked up, the tested form may be a part): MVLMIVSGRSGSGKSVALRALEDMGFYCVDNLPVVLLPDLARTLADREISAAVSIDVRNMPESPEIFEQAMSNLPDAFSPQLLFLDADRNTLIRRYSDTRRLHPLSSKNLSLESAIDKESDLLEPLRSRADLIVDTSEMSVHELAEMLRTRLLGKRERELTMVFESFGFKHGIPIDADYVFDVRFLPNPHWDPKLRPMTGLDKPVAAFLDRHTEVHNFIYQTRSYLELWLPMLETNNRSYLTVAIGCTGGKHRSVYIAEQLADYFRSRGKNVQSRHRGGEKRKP

Regarding “GGGAGAGUAGAUGCUCAUUCCAUCUCUUAUGUUCGCCUUAGUGCCUCAUAAACUCCGGAAUGACGCAGAGCCGUUUACGGUGCUUAUCGUCCACUGACAGAUGUCGCUUAUGCCUCAUCAGACACCAUGGACACAACGUUGAGUGAAGCACCCACUUGUUGUCAUACAGACCUGUUUUAACGCCUGCUCCGUAAUAAGAGCAGGCGUUUUUUU [GlmZ sRNA (in vitro transcript)]”, the binding result in data set [1] is recorded as “binds more weakly”; in data set [2], “no binding”; in data set [3], “no binding”; in data set [4], “no binding”; in data set [5], “binds”.

With “RapZ_(1–279), BACTH fusion (from UniProt P0A894) T278G; L279G”, in data set [6], the response is 3600 Miller units.
